Biological target: the molecule itself
Test: crystal structure

B1: hASRGL1-Thr168Ala (human asparaginase-like protein 1, processing-inactive, precursor-like variant) (enzyme, UniProt Q7L266 1-308, looked up)
chain: MNPIVVVHGGGAGPISKDRKERVHQGMVRAATVGYGILREGGSAVDAVEGAVVALEDDPEFNAGCGSVLNTNGEVEMDASIMDGKDLSAGAVSAVQCIANPIKLARLVMEKTPHCFLTDQGAAQFAAAMGVPEIPGEKLVTERNKKRLEKEKHEKGAQKTDCQKNLGAVGAVALDCKGNVAYATSTGGIVNKMVGRVGDSPCLGAGGYADNDIGAVSTTGHGESILKVNLARLTLFHIEQGKTVEEAADLSLGYMKSRVKGLGGLIVVSKTGDWVAKWTSTSMPWAAAKDGKLHFGIDPDDTTITDLP
B1: binds.

Source: PMC3514461 (ACS chemical biology, 2012)
